# Results reported in IntAct's records for PubMed 19740107.
# B1: Amphiregulin (Homo sapiens), P15514 (parent)
# chain: MRAPLLPPAPVVLSLLILGSGHYAAGLDLNDTYSGKREPFSGDHSADGFEVTSRSEMSSGSEISPVSEMPSSSEPSSGADYDYSEEYDNEPQIPGYIVDDSVRVEQVVKPPQNKTESENTSDKPKRKKKGGKNGKNRRNRKKKNPCNAEFQNFCIHGECKYIEHLEAVTCKCQQEYFGERCGEKSMKTHSMIDSSLSKIALAAIAAFMSAVILTAVAVITVQLRRQYVRKYEGEAEERKKLRQENGNVHAIA
# Variants of: B1
# Conditions: with S100A4, P26447
# Chain of S100A4, P26447 (P26447 whole entry, looked up): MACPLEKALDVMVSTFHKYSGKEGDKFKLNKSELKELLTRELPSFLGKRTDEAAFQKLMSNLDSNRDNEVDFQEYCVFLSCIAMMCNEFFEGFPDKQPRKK
row,effect of a mutation on the interaction,Variant
1,decreasing interaction,MRAPLLPPAPVVLSLLILGSGHYAAGLDLNDTYSGKREPFSGDHSADGFEVTSRSEMSSGSEISPVSEMPSSSEPSSGADYDYSEEYDNEPQIPGYIVDDSVRVEQVVKPPQNKTESENTSDKPKRKKKGGKNGKNRRNRKKKNPCNAEFQNLCIHGECKYIEHLEAVTCKCQQEYFGERCGEKSMKTHSMIDSSLSKIALAAIAAFMSAVILTAVAVITVQLRRQYVRKYEGEAEERKKLRQENGNVHAIA [F153L]
2,decreasing interaction,MRAPLLPPAPVVLSLLILGSGHYAAGLDLNDTYSGKREPFSGDHSADGFEVTSRSEMSSGSEISPVSEMPSSSEPSSGADYDYSEEYDNEPQIPGYIVDDSVRVEQVVKPPQNKTESENTSDKPKRKKKGGKNGKNRRNRKKKNPCNAEFQNFAIHGECKYIEHLEAVTCKCQQEYFGERCGEKSMKTHSMIDSSLSKIALAAIAAFMSAVILTAVAVITVQLRRQYVRKYEGEAEERKKLRQENGNVHAIA [C154A]

# Variants of: B1
# Conditions: with S100A4, P26447
# Remark: another data set of the same source
row,effect of a mutation on the interaction,Variant
1,decreasing interaction,MRAPLLPPAPVVLSLLILGSGHYAAGLDLNDTYSGKREPFSGDHSADGFEVTSRSEMSSGSEISPVSEMPSSSEPSSGADYDYSEEYDNEPQIPGYIVDDSVRVEQVVKPPQNKTESENTSDKPKRKKKGGKNGKNRRNRKKKNPCNAEFQNFCIHGECKYIEHLEAVTAKCQQEYFGERCGEKSMKTHSMIDSSLSKIALAAIAAFMSAVILTAVAVITVQLRRQYVRKYEGEAEERKKLRQENGNVHAIA [C170A]
2,decreasing interaction,MRAPLLPPAPVVLSLLILGSGHYAAGLDLNDTYSGKREPFSGDHSADGFEVTSRSEMSSGSEISPVSEMPSSSEPSSGADYDYSEEYDNEPQIPGYIVDDSVRVEQVVKPPQNKTESENTSDKPKRKKKGGKNGKNRRNRKKKNPCNAEFQNFCIHGECKYIEHLEAVTCACQQEYFGERCGEKSMKTHSMIDSSLSKIALAAIAAFMSAVILTAVAVITVQLRRQYVRKYEGEAEERKKLRQENGNVHAIA [K171A]
3,decreasing interaction,MRAPLLPPAPVVLSLLILGSGHYAAGLDLNDTYSGKREPFSGDHSADGFEVTSRSEMSSGSEISPVSEMPSSSEPSSGADYDYSEEYDNEPQIPGYIVDDSVRVEQVVKPPQNKTESENTSDKPKRKKKGGKNGKNRRNRKKKNPCNAEFQNFCIHGECKYIEHLEAVTCKLQQEYFGERCGEKSMKTHSMIDSSLSKIALAAIAAFMSAVILTAVAVITVQLRRQYVRKYEGEAEERKKLRQENGNVHAIA [C172L]
